{"source": "paper PMC8514580", "about": "“Insight into the interaction between the RNA helicase CGH-1 and EDC-3 and its implications” (Scientific Reports, 2021)", "molecules": {"B1": {"name": "CAR-1_184–268: recombinant CAR-1 FDF-TFG (residues 184–268) (protein)", "chain": "LKFESDFDFEKANEKFQEVLVDNLEKLNIEDKAEPEVEEKKDAAFYDKKTSFFDNISCESLEKAEGKTGRPDWKKERETNQETFG", "modifications": "left off: His tag (from the modified vector pET-28a), end not stated, state not stated"}, "B2": {"name": "CAR-1: CAR-1, construct of ref 17; TFG motif interacts with Phe355 of CGH-1 (protein, UniProt Q9XW17 1-340, looked up)", "Protein LSM14 homolog car-1": "MSNQTPYIGSKISLISKLDIRYEGILYTVDTNDSTIALAKVRSFGTEKRPTANPVAARDDVYEYIIFKASDIKDLIVCDTPKMANIGGGLPYDPAIISVSSRSAPASDGAPAASAGSSRAGTPSRNSPLGQIIQNQRPGRGGYQQNFQANRGYNNYRGGFAGGYNNQRGHNNYGVPRVNHREKLKFESDFDFEKANEKFQEVLVDNLEKLNIEDKAEPEVEEKKDAAFYDKKTSFFDNISCESLEKAEGKTGRPDWKKERETNQETFGHNAVRSLNYRRGFGGRGRGGNRGYGGYNNGYQHQHQHRGGYNGGYRQNNGGYRRGGYAPRDNQGNTAAAAEQ"}, "B3": {"name": "YFP-tagged PATL1 W46A: substitution of Trp46 to Ala in the YFP-tagged PATL1 (protein, UniProt Q86TB9 1-770, looked up, variant W46A)", "Protein PAT1 homolog 1": "MFRYESLEDCPLDEDEDAFQGLGEEDEEIDQFNDDTFGSGAVDDDAQEAHERLAELEEKLPVAVNEQTGNGERDEMDLLGDHEENLAERLSKMVIENELEDPAIMRAVQTRPVLQPQPGSLNSSIWDGSEVLRRIRGPLLAQEMPTVSVLEYALPQRPPQGPEDDRDLSERALPRRSTSPIIGSPPVRAVPIGTPPKQMAVPSFTQQILCPKPVHVRPPMPPRYPAPYGERMSPNQLCSVPNSSLLGHPFPPSVPPVLSPLQRAQLLGGAQLQPGRMSPSQFARVPGFVGSPLAAMNPKLLQGRVGQMLPPAPGFRAFFSAPPSATPPPQQHPPGPGPHLQNLRSQAPMFRPDTTHLHPQHRRLLHQRQQQNRSQHRNLNGAGDRGSHRSSHQDHLRKDPYANLMLQREKDWVSKIQMMQLQSTDPYLDDFYYQNYFEKLEKLSAAEEIQGDGPKKERTKLITPQVAKLEHAYKPVQFEGSLGKLTVSSVNNPRKMIDAVVTSRSEDDETKEKQVRDKRRKTLVIIEKTYSLLLDVEDYERRYLLSLEEERPALMDDRKHKICSMYDNLRGKLPGQERPSDDHFVQIMCIRKGKRMVARILPFLSTEQAADILMTTARNLPFLIKKDAQDEVLPCLLSPFSLLLYHLPSVSITSLLRQLMNLPQSAATPALSNPHLTAVLQNKFGLSLLLILLSRGEDLQSSDPATESTQNNQWTEVMFMATRELLRIPQAALAKPISIPTNLVSLFSRYVDRQKLNLLETKLQLVQGIR", "modifications": "YFP tag"}, "B4": {"name": "YFP-tagged PATL1 W46D: substitution of Trp46 to Asp in the YFP-tagged PATL1 (protein, UniProt Q86TB9 1-770, looked up, variant W46D)", "Protein PAT1 homolog 1": "MFRYESLEDCPLDEDEDAFQGLGEEDEEIDQFNDDTFGSGAVDDDDQEAHERLAELEEKLPVAVNEQTGNGERDEMDLLGDHEENLAERLSKMVIENELEDPAIMRAVQTRPVLQPQPGSLNSSIWDGSEVLRRIRGPLLAQEMPTVSVLEYALPQRPPQGPEDDRDLSERALPRRSTSPIIGSPPVRAVPIGTPPKQMAVPSFTQQILCPKPVHVRPPMPPRYPAPYGERMSPNQLCSVPNSSLLGHPFPPSVPPVLSPLQRAQLLGGAQLQPGRMSPSQFARVPGFVGSPLAAMNPKLLQGRVGQMLPPAPGFRAFFSAPPSATPPPQQHPPGPGPHLQNLRSQAPMFRPDTTHLHPQHRRLLHQRQQQNRSQHRNLNGAGDRGSHRSSHQDHLRKDPYANLMLQREKDWVSKIQMMQLQSTDPYLDDFYYQNYFEKLEKLSAAEEIQGDGPKKERTKLITPQVAKLEHAYKPVQFEGSLGKLTVSSVNNPRKMIDAVVTSRSEDDETKEKQVRDKRRKTLVIIEKTYSLLLDVEDYERRYLLSLEEERPALMDDRKHKICSMYDNLRGKLPGQERPSDDHFVQIMCIRKGKRMVARILPFLSTEQAADILMTTARNLPFLIKKDAQDEVLPCLLSPFSLLLYHLPSVSITSLLRQLMNLPQSAATPALSNPHLTAVLQNKFGLSLLLILLSRGEDLQSSDPATESTQNNQWTEVMFMATRELLRIPQAALAKPISIPTNLVSLFSRYVDRQKLNLLETKLQLVQGIR", "modifications": "YFP tag"}, "B5": {"name": "GST-EDC-3_230–566: GST-tagged fragment of C. elegans EDC-3 (residues 230–566) plus a C-terminal His6 tag (protein)", "chain": "RNKNDLADPIDFDLDSDFDFAENLKLFEKDENDDQYYETVEKFKCSQNFAHYENIIDDENRVTSWTNLKARSELVKTGTTPQTSEKNNFRVTAVSFEKSIIGDPIPAISLNEKKEFLNECRVSLGEAVYDTIVADRIFQWVSEVQNSYGDAHGTVVLLASSANSVRSIRRLLTHFDKRRYNCHLFGKYPGEIFDHVNVVTDVKMLPREVPIICILSPVVNDDVECWLRAQSNGASSHYVCIENVPSVLEPSRCHLLQFGCATNGLRHAERKVQTINRGGITFEHLCQGKMHEETSSILVDSAIADLGSPSNWFDNTSSKFISTAFSTTFLVRLSQSN", "modifications": "left off: GST, end not stated, kept | His6, C-terminal, state not stated", "notes": "GST-tagged fragment of C. elegans EDC-3 (residues 230–566) plus a C-terminal His6 tag"}}, "key": {"[1]": {"target": "CAR-1 184-214 (Caenorhabditis elegans) (UniProt Q9XW17)", "assay": "ITC", "settings": "cited from earlier work"}, "[2]": {"tested_on": "CGH-1_248–420 binding to GST-EDC-3_230–566", "assay": "GST-pulldown competition, CGH-1_248–420 binding to GST-EDC-3_230–566", "set-up": "species or system C. elegans", "settings": "PBS, 2 h, same amount of CAR-1_184–268 and CGH-1_248–420 (50 μg)", "procedure": "To investigate whether CAR-1_184–268 can affect CGH-1_248–420 binding to EDC-3_230–566, approximate 100 μg GST-tagged EDC-3_230–566 was incubated with GST resin, followed by three times of wash in PBS. The resin was then incubated with 50 μg CGH-1_248–420 in the absence or presence of the same amount of CAR-1_184–268 for 2 h, followed by five times of PBS wash, and captured proteins were finally analyzed as described above.\nTo investigate whether C. elegans PATR-1 peptide will affect the CGH-1 binding to GST-tagged EDC-3_230–566 protein, approximate 100 μg GST-tagged EDC-3_230–566 was incubated with GST resin, followed by three times of wash in PBS. The resin was then incubated with 50 μg CGH-1_248–420 without PATR-1 peptide (0 μM) or with varied concentration of PATR-1 peptide (12.5, 25, or 50 μM) for 2 h, and was washed five times in PBS. The captured proteins in resin were finally heated and analyzed using 12% SDS-PAGE."}, "CGH-1_248-420^WT": {"target": "T1, CGH-1_248-420^WT (Caenorhabditis elegans, UniProt Q95YF3)", "T1 construct": "the cDNA fragments encoding CGH-1 RecA2 (residues 248–420); made in house; host or cells: E. coli Gold (DE3)", "T1 sequence (Q95YF3 248-420)": "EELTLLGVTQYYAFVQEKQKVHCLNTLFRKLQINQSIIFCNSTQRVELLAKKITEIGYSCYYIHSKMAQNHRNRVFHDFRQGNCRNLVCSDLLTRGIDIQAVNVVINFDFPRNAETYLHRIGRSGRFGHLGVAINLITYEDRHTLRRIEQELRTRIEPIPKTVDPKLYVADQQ", "assay": "ITC binding to CGH-1_248–420 WT", "set-up": "species or system C. elegans", "settings": "ITC, 20 °C, pH 7.5, 150 mM NaCl; CGH-1_248–420 WT", "procedure": "Expression plasmids regarding CGH-1 and CAR-1 were constructed as previously described. In brief, the cDNA fragments encoding CGH-1 RecA2 (residues 248–420), CAR-1 FDF-TFG (residues 184–268) were amplified by PCR from C. elegans genome library and cloned into the NdeI and XhoI site of a modified pET-28a (Novagen) vector (p28a), in which a thrombin protease cleavage site was removed.\nCGH-1 protein expression and purification were performed described as in our most recent paper. In brief, proteins were expressed in E. coli Gold (DE3) strain (Novagen). […] Cells were resuspended in Buffer A (20 mM Tris–HCl, pH 7.5, 1 M NaCl), and then lysed using high pressure at 4 °C. Proteins were initially purified by Ni-chelating resin (Qiagen), and further purified by size exclusion chromatography (SEC) on a Superdex 75 column (GE healthcare) in Buffer A. The purified proteins were dialyzed into Buffer B (20 mM Tris–HCl, pH 7.5, 150 mM NaCl).\nA peptide containing the C. elegans EDC-3 FDF fragment (residues 235–271) and PATR-1 fragment (residues 30–67) were synthesized from GL Biochem (Shanghai, China) Co., Ltd, respectively. Stock solutions of peptide were prepared in Buffer B described above, and were adjusted to pH 7.5 ± 0.02 for subsequent experiments.\nITC assays were performed as previously described. In brief, it was carried out on a MicroCal PEAQ-ITC (Malvern) at 20 °C with the following settings: reference power, 5 μcal/s; initial delay, 60 s; stir speed, 750 rpm; spacing time, 120 s. Proteins (or its mutants) and peptides were adjusted to 0.05 mM and 0.5 mM, respectively. Experiments were initialed by injection of 1 μl each of peptide into the sample cell (200 μl) filled with protein (or its mutants) solution, followed by 18 injections of 2 μl. The ITC data were fitted with a one-binding-site model using the Origin analysis software."}, "CGH-1_248-420^F355A": {"target": "CGH-1_248-420^F355A (Caenorhabditis elegans, UniProt Q95YF3, F355A)", "sequence (Q95YF3 248-420 F355A)": "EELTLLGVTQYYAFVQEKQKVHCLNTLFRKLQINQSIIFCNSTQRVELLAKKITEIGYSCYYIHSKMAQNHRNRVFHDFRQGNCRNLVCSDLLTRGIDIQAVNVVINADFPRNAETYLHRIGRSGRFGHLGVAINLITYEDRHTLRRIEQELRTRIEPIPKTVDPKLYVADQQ", "set-up": "the cDNA fragments encoding CGH-1 RecA2 (residues 248–420); made in house; host or cells: E. coli Gold (DE3)", "settings": "ITC, CGH-1 F355A vs WT; cited from earlier work", "text": "We recently identified a highly conserved FDF (Phe-Asp-Phe) motif between beta-strand 12 and alpha-helix 13 in CGH-1 RecA2 domain but the function is currently unclear (Fig. 1B)[17]. Mechanistically, Phe355 in CGH-1 may mediate hydrophobic interaction with Thr266 in the TFG motif of CAR-1 and a mutation of Phe355 to Ala (F355A) in CGH-1 decreased the binding affinity by a factor of approximate 5 as measured by ITC assay. Since PATR-1N-terminus has also a TFG motif, we hypothesize that PATR-1 may also interact with CGH-1 via similar binding mechanism (Supplementary Fig. S3B and C). Striking ..."}, "human HA-tagged DDX6": {"tested_on": "human HA-tagged DDX6", "settings": "Co-immunoprecipitation, YFP-tagged PATL1 mutants; cited from earlier work"}, "[3]": {"tested_on": "4A mutant of CGH-1_248–420", "assay": "GST-pulldown of CGH-1_248–420 4A mutant", "format": "binding, C. elegans", "settings": "PBS, ~100 μg GST protein, ~50 μg CGH-1 4A, 2 h, 12% SDS-PAGE", "procedure": "(§1) The cDNA encoding a fragment of C. elegans EDC-3 (residues 230–566) plus a C-terminal His6 tag was synthesized by Sangon Biotech (Shanghai, China) Co., Ltd. The DNA fragment was then cloned into a pGEX-4T-1 expression vector using restriction enzymes BamHI and XhoI, and finally confirmed by DNA sequencing.\n(§2) To test if GST-tagged EDC-3 can pulldown CGH-1 protein, about 100 μg protein, GST alone or GST-EDC-3_230–566, was incubated with GST resin (GE Healthcare) in PBS for 1 h. The resin was then washed three times with the same buffer. Subsequently, the resin was incubated with ~ 50 μg recombinant CGH-1_248–420 protein or its 4A mutant in the same buffer for 2 h. The resin was then washed five times using the same buffer. The captured proteins in resin were finally heated and analyzed using 12% SDS-PAGE."}, "CGH-1_248–420": {"tested_on": "CGH-1_248–420", "assay": "GST-pulldown of CGH-1_248–420 WT", "format": "binding, C. elegans", "settings": "PBS, ~100 μg GST protein, ~50 μg CGH-1, 2 h, 12% SDS-PAGE", "procedure": "as §1, §2"}}, "note": "Entries after “also recorded” stand apart in the source; their conditions may differ.", "data": [{"molecule": "CGH-1 248-420 (from UniProt Q95YF3)", "values": [{"measurement": "Kd", "setting": "[1]", "value": 43, "unit": "µM"}]}, {"molecule": "B1", "values": [{"measurement": "effect on binding of CGH-1_248–420 to EDC-3_230–566", "setting": "[2]", "value": "little or no effect"}, {"measurement": "− TΔS", "setting": "CGH-1_248-420^WT", "value": 19.6, "unit": "kcal/mol"}]}, {"molecule": "B2", "values": [{"measurement": "decrease of binding affinity, factor vs WT", "setting": "CGH-1_248-420^F355A", "value": "~5"}]}, {"molecule": "B3", "values": [{"measurement": "interaction with DDX6", "setting": "human HA-tagged DDX6", "value": "impaired the interaction"}]}, {"molecule": "B4", "values": [{"measurement": "interaction with DDX6", "setting": "human HA-tagged DDX6", "value": "impaired the interaction"}]}, {"molecule": "B5", "values": [{"measurement": "amount of CGH-1 4A bound compared with wild-type", "setting": "[3]", "value": "less amount"}, {"measurement": "interaction with CGH-1_248–420", "setting": "CGH-1_248–420", "value": "can interact with CGH-1_248–420; also recorded: binds to CGH-1 RecA2 domain"}]}]}
